Patent publication US20220057381A1

Columns and labels:
Assay in all cases: cell-based or functional assay
[1] = molecular target: BCMA on multiple myeloma target cells (KILR MM-1R; RPMI8226_Luc) (UniProt Q02223)
[2] = molecular target: LCAR-B38M CAR (on LCAR-B38M CAR-T drug product cells)
[3] = molecular target: KLK2 CAR (on KLK2 CAR-T cells)

Substance: LCAR-B38M CAR (on LCAR-B38M CAR-T drug product cells) (receptor)
- % Total Killing, sample PQ-0330 Donor B MOI = 1.5 on RPMI8226 luc target cells [1]: 77%
- % Total Killing, sample SH19-28 on RPMI8226 Luc target cells [1]: 67%

Substance: Soluble Human BCMA Protein (sBCMA) (from UniProt Q02223 1-54) (receptor)
- % CAR-T Killing of KILR MM-1R cells, baseline = CAR-T cells blocked with 50 ug/mL sBCMA lot C108P1-86BF2-NX [2]: 42%
- % CAR-T Killing of KILR MM-1R cells, baseline = CAR-T cells blocked with 100 ug/mL sBCMA lot C108P1-86BF2-NX [2]: 59%
- % CAR-T Killing of KILR MM-1R cells, baseline = CAR-T cells blocked with 150 ug/mL sBCMA lot C108P1-86BF2-NX [2]: 68%
- % CAR-T Killing of KILR MM-1R cells, baseline = CAR-T cells blocked with 200 ug/mL sBCMA lot C108P1-86BF2-NX [2]: 74%
- % CAR-T Killing of KILR MM-1R cells, baseline = CAR-T cells blocked with 250 ug/mL sBCMA lot C108P1-86BF2-NX [2]: 79%
- % CAR-T Killing of KILR MM-1R cells, baseline = CAR-T cells blocked with 300 ug/mL sBCMA lot C108P1-86BF2-NX [2]: 79%
- % CAR-T Killing of KILR MM-1R cells, baseline = CAR-T cells blocked with 400 ug/mL sBCMA lot C108P1-86BF2-NX [2]: 62%
- % CAR-T Killing, Blocking method, sample PQ-0330 Donor B MOI = 1.5 on K562 Luc (non-B cell) target cells [2]: -46%
- % CAR-T Killing, Blocking method, sample PQ-0330 Donor B MOI = 1.5 on RPMI8226 luc target cells [2]: 28%
- % CAR-T Killing, Blocking method, sample SH19-28 on K562 Luc (non-B cell) target cells [2]: -41%
- % CAR-T Killing, Blocking method, sample SH19-28 on RPMI8226 Luc target cells [2]: 29%
- % Control T Cell Killing (blocked baseline), Blocking method, sample PQ-0330 Donor B MOI = 1.5 on RPMI8226 luc target cells [2]: 67%
- % Control T Cell Killing (blocked baseline), Blocking method, sample SH19-28 on K562 Luc (non-B cell) target cells [2]: 39%
- % Control T Cell Killing (blocked baseline), Blocking method, sample SH19-28 on RPMI8226 Luc target cells [2]: 53%

Substance: soluble human KLK2 protein (sKLK2) with C-terminal His6 tag (from UniProt P20151 25-261)
- % CAR-T Killing of KILR LNcaP-KLK2 cells, baseline = SH20-KLK2-004-CAR-T blocked w/ 125 ug/mL KLK2 soluble protein (500 mg/mL) [3]: 107%

Substance: soluble human KLK2 protein (sKLK2) with C-terminal His6 tag (from UniProt P20151 25-261) (enzyme)
- % CAR-T Killing of KILR LNcaP-KLK2 cells, baseline = SH20-KLK2-004-CAR-T blocked w/ 2.5 ug/mL KLK2 soluble protein (500 mg/mL) [3]: 49%
- % CAR-T Killing of KILR LNcaP-KLK2 cells, baseline = SH20-KLK2-004-CAR-T blocked w/ 12.5 ug/mL KLK2 soluble protein (500 mg/mL) [3]: 68%
- % CAR-T Killing of KILR LNcaP-KLK2 cells, baseline = SH20-KLK2-004-CAR-T blocked w/ 25 ug/mL KLK2 soluble protein (500 mg/mL) [3]: 79%
- % CAR-T Killing of KILR LNcaP-KLK2 cells, baseline = SH20-KLK2-004-CAR-T blocked w/ 50 ug/mL KLK2 soluble protein (500 mg/mL) [3]: 96%
- % CAR-T Killing of KILR LNcaP-KLK2 cells, baseline = SH20-KLK2-004-CAR-T blocked w/ 75 ug/mL KLK2 soluble protein (500 mg/mL) [3]: 106%
- % CAR-T Killing of KILR LNcaP-KLK2 cells, baseline = SH20-KLK2-004-CAR-T blocked w/ 100 ug/mL KLK2 soluble protein (500 mg/mL) [3]: 111%
